In publication PMC8635412:

How the values were obtained:
[1] = target: Biotinylated UBE3A HECT domain Q588E (METRIS) (human); assay: METRIS (mechanically transduced immunosorbent assay, rolling magnetic probes); biotinylated ubiquitin on streptavidin-coated ferromagnetic beads rolling on avidin-coated slides coated with biotinylated UBE3A HECT domain; rotating magnetic field 1 Hz for 5 s; read-out rolling parameter (dimensionless)
[2] = target: Biotinylated UBE3A HECT domain, wild type (METRIS) (human); assay: as above

rolling parameter (ζ) [1] | rolling parameter (ζ) [2] | Substance
0.247 |  | Biotinylated Cys-ubiquitin (ubiquitin variant with an N-terminal cysteine) on streptavidin-coated ferromagnetic particles (from UniProt P0CG48 1-76) (natural protein)
 | 0.178 | Biotinylated Cys-ubiquitin (ubiquitin variant with an N-terminal cysteine) on streptavidin-coated ferromagnetic particles (from UniProt P0CG48 1-76)
